Article PMC11055835, “Small animal PET imaging with the ^68Ga-labeled pH (low) insertion peptide-like peptide YJL-4 in a triple-negative breast cancer mouse model” (EJNMMI Radiopharmacy and Chemistry, 2024)
Where two headings read alike, the source gives them in different places. Peptide text beside a SMILES is read from it. * marks the point of attachment. X1 = O=C(O)CN1CCN(CC(=O)O)CC(Cc2ccc(NC(=S)*)cc2)N(CC(=O)O)CC1; NOTA = O=C(O)CN1CCN(CC(=O)O)CCN(CC(=O)*)CC1; Ahx = NCCCCCC(=O)O

Tests used:
[1] = Serum stability in human serum; type: in vitro ADME
Experimental: (§1) Two hundred microliters of each ^68Ga-labeled peptide (18.5 MBq) was mixed with 1.0 mL of fresh human serum (or mouse serum) and incubated at 37 °C, and the radiochemical purity was detected at 30, 60, 120, and 240 min after mixing.

[2] = Serum stability in mouse serum; type: in vitro ADME
Experimental: as §1

Serum protein binding = type: in vitro ADME, mouse
Experimental: The resulting mixture was vortexed for 1 min and centrifuged (13,000 rpm) for 5 min. The supernatant was transferred to a 1.7 ml Eppendorf tube and then further centrifuged at 13,000 rpm for 2 min. The supernatant and sediment were collected separately, and the radioactivity was measured with a gamma counter to determine the serum protein binding of the radiotracer.

In vivo biodistribution = experiment: In vivo biodistribution; set-up: species or system BALB/c nude mice; details: female, BALB/c nude, mouse, iv, 1.85 MBq/200 uL, total radioactivity
Text: Twenty-four four- to five-week-old female specific pathogen-free (SPF) BALB/c nude mice (Hangzhou Ziyuan Experimental Animal Technology Co., Ltd., China, license number: […] The animal studies were approved by the ethics committee of Qingdao University, and the management of the animals adhered to the animal ethics standards. Eighteen tumor-bearing nude mice were selected for in vivo biodistribution experiments when the tumor diameter reached 0.8–1.0 cm. Mice were randomly divided into two groups: a YJL-4 group and a control group with 9 mice per group; each group had three time points. […] The mice were humanely sacrificed 1 h, 2 h, or 4 h after injection. The brain, heart, lungs, liver, kidneys, stomach, small intestine, blood, muscles, bones, and tumor were collected and weighed, and the radioactivity was measured. The biodistribution results are expressed as the percent of the injected dose per gram of tissue (% ID/g).

[3] = test system: MDA-MB-231 tumor-bearing nude mice; experiment: Small animal PET imaging; type: in vivo, BALB/c nude mice; details: 2 and 4 h after injection, approx. 7.4 MBq/200 μL via tail vein, static 10-min PET, n = 3
Experimental: Human breast cancer cells (MDA-MB-231 cells from the Cell Bank of the Chinese Academy of Sciences) were cultured in high-glucose DMEM supplemented with 10% fetal bovine serum and 1% double antibiotic mixture (penicillin‒streptomycin mixture) at 37 °C in 5% CO2. Twenty-four four- to five-week-old female specific pathogen-free (SPF) BALB/c nude mice (Hangzhou Ziyuan Experimental Animal Technology Co., Ltd., China, license number: SCXK(Zhe) 2019–0004) were used to establish the MDA-MB-231 tumor model by subcutaneously inoculating 0.1 mL of cell suspension (50 µL of PBS + 50 µL of Matrigel) containing 1 × 10^6 MDA-MB-231 cells at the base of the right forelimb of each mouse. The animal studies were approved by the ethics committee of Qingdao University, and the management of the animals adhered to the animal ethics standards.
Six tumor-bearing nude mice were selected for imaging when the tumor diameter reached 0.8–1.0 cm. Mice were randomly divided into two groups: a YJL-4 group and a control group, with 3 mice per group; each group had two time points. Each tumor-bearing nude mouse was injected with approximately 7.4 MBq/200 μL of ^68Ga-YJL-4 or ^68Ga-kVar7 through the tail vein, and the mice were anesthetized with 2% isoflurane at 2 and 4 h after injection and imaged using static 10-min PET and moderate-resolution whole-body CT. […]

With `CC(C)C[C@H](NC(=O)[C@H](CC(=O)O)NC(=O)[C@H](CC(C)C)NC(=O)[C@H](CC(C)C)NC(=O)[C@H](CC(C)C)NC(=O)[C@@H](NC(=O)[C@H](CC(=O)O)NC(=O)[C@@H](NC(=O)[C@@H]1CCCN1C(=O)[C@H](Cc1ccccc1)NC(=O)[C@H](CC(C)C)NC(=O)[C@H](CC(C)C)NC(=O)[C@H](CC(=O)O)NC(=O)[C@H](C)NC(=O)[C@H](Cc1ccc(O)cc1)NC(=O)[C@H](CCCNC(=N)N)NC(=O)[C@H](C)NC(=O)[C@H](Cc1c[nH]c2ccccc12)NC(=O)[C@@H]1CCCN1C(=O)[C@H](CC(N)=O)NC(=O)[C@H](CCC(N)=O)NC(=O)[C@H](CC(=O)O)NC(=O)[C@H](CC(=O)O)NC(=O)[C@H](CS)NC(=O)[C@H](C)NC(=O)CCCCCNC(=S)Nc1ccc(CC2CN(CC(=O)O)CCN(CC(=O)O)CCN2CC(=O)O)cc1)[C@@H](C)O)[C@@H](C)O)C(N)=O` (stereo partly drawn) [^68Ga-YJL-4, metal not drawn] ({X1-Ahx}-ACDDQNPWARYADLLFPTDTLLLDL-NH2) the “Radiochemical purity after incubation in human serum” value [1] was roughly 95%, the “Radiochemical purity after incubation in mouse serum” value [2] was roughly 95% and the fraction unbound at 30 min (Serum protein binding; mouse, serum) was 0.678. The fraction unbound at 120 min (Serum protein binding; mouse, serum) was 0.685, the tissue uptake at 1 h (In vivo biodistribution; Biodistribution in tumors) was 5.94 ± 1.27 %ID/g and the tissue uptake at 2 h (In vivo biodistribution; Biodistribution in tumors) was 6.72 ± 1.69 %ID/g. For the same compound, the tissue uptake at 4 h (In vivo biodistribution; Biodistribution in tumors) was 4.54 ± 0.58 %ID/g, the tissue uptake at 1 h (In vivo biodistribution; Distribution in the blood) was 19.6 ± 3.92 %ID/g and the tissue uptake at 2 h (In vivo biodistribution; Distribution in the blood) was 8.23 ± 3.47 %ID/g. The tissue uptake at 4 h (In vivo biodistribution; Distribution in the blood) was 3.38 ± 1.91 %ID/g, the tissue uptake at 1 h (In vivo biodistribution; Distribution in the liver) was 20.5 ± 3.64 %ID/g and the tissue uptake at 2 h (In vivo biodistribution; Distribution in the liver) was 14.5 ± 3.98 %ID/g. The tissue uptake at 4 h (In vivo biodistribution; Distribution in the liver) was 10.2 ± 2.77 %ID/g and the “Visualization of tumors by PET” value [3] was “clearly visualized”.
With `CC(C)C[C@H](NC(=O)[C@H](CCCCN)NC(=O)[C@H](CC(C)C)NC(=O)[C@H](CC(C)C)NC(=O)[C@H](CC(C)C)NC(=O)[C@@H](NC(=O)[C@H](CCCCN)NC(=O)[C@@H](NC(=O)[C@@H]1CCCN1C(=O)[C@H](Cc1ccccc1)NC(=O)[C@H](CC(C)C)NC(=O)[C@H](Cc1c[nH]c2ccccc12)NC(=O)[C@H](CCCCN)NC(=O)[C@H](CC(C)C)NC(=O)[C@H](Cc1ccc(O)cc1)NC(=O)[C@H](CCCNC(=N)N)NC(=O)[C@H](C)NC(=O)[C@H](Cc1c[nH]c2ccccc12)NC(=O)[C@@H]1CCCN1C(=O)[C@H](CC(N)=O)NC(=O)[C@H](CCC(N)=O)NC(=O)[C@H](CCC(=O)O)NC(=O)[C@H](CCC(=O)O)NC(=O)[C@H](CS)NC(=O)[C@H](C)NC(=O)CN1CCN(CC(=O)O)CCN(CC(=O)O)CC1)[C@@H](C)O)[C@@H](C)O)C(N)=O` [^68Ga-kVar7, metal not drawn, reference compound] ({NOTA}-ACEEQNPWARYLKWLFPTKTLLLKL-NH2; N-terminus assumed) the “Radiochemical purity after incubation in human serum” value ([1]; 200 µL labeled peptide (18.5 MBq) in 1.0 mL fresh human serum, 37 °C, 240 min) was roughly 95%, the “Radiochemical purity after incubation in mouse serum” value ([2]; 200 µL labeled peptide (18.5 MBq) in 1.0 mL mouse serum, 37 °C, 240 min) was roughly 95% and the fraction unbound at 30 min (Serum protein binding; mouse serum, 37 °C, 30 min, 0.37 MBq, acetonitrile precipitation, gamma counter, mean ± SD, read-out: Serum protein binding rate (converted)) was 0.723. The “Serum protein binding rate” value (Serum protein binding; mouse serum, 37 °C, 60 min, 0.37 MBq, acetonitrile precipitation, gamma counter, mean ± SD) was 27.89 ± 2.02%, the fraction unbound at 120 min (Serum protein binding; mouse serum, 37 °C, 120 min, 0.37 MBq, acetonitrile precipitation, gamma counter, mean ± SD, read-out: Serum protein binding rate (converted)) was 0.75 and the “Serum protein binding rate” value (Serum protein binding; mouse serum, 37 °C, 240 min, 0.37 MBq, acetonitrile precipitation, gamma counter, mean ± SD) was 27.54 ± 0.86%. It also gave a tissue uptake at 1 h (In vivo biodistribution; 1 h after injection, 1.85 MBq/200 μL via tail vein, mean ± SD, n = 3, read-out: Distribution in the blood) of 20.6 ± 4.73 %ID/g, a tissue uptake at 1 h (In vivo biodistribution; 1 h after injection, 1.85 MBq/200 μL via tail vein, mean ± SD, n = 3, read-out: Distribution in the liver) of 21.3 ± 2.93 %ID/g and a tissue uptake at 2 h (In vivo biodistribution; 2 h after injection, 1.85 MBq/200 μL via tail vein, mean ± SD, n = 3, read-out: Distribution in the blood) of 9.88 ± 2.71 %ID/g. For the same compound, the tissue uptake at 2 h (In vivo biodistribution; 2 h after injection, 1.85 MBq/200 μL via tail vein, mean ± SD, n = 3, read-out: Distribution in the liver) was 14.8 ± 3.87 %ID/g, the tissue uptake at 4 h (In vivo biodistribution; 4 h after injection, 1.85 MBq/200 μL via tail vein, mean ± SD, n = 3, read-out: Distribution in the blood) was 3.17 ± 1.6 %ID/g and the tissue uptake at 4 h (In vivo biodistribution; 4 h after injection, 1.85 MBq/200 μL via tail vein, mean ± SD, n = 3, read-out: Distribution in the liver) was 11 ± 2.77 %ID/g. For the same compound, the “Visualization of tumors by PET” value [3] was “not visualized”.
